From PMC7935978

System: FUS-Gal4
Assay: single-molecule (DNA curtains, koff/kon)
Conditions: condensate-DNA interaction; protein label and DNA substrate inferred; 40 mM Tris-HCl pH 7.5, 150 mM KCl, 2 mM MgCl2, 1 mM DTT, 0.2 mg/ml BSA; EMSA 30 min at room temperature

**Q.** Lambda DNA + 7x Gal4 sites was tested. Which Kd did it give?
**A.** 0.8 nM
